Laboratory results from patent CN114316057A (SHENZHEN PEOPLE HOSPITAL, dated 2022).

Columns and labels:
[1] = target: T1, TOM20-Human 胞质结构域蛋白(25-145) (human, UniProt Q15388 25-145); assay: phage clone ELISA, crude phage nanobody extract on coated TOM20 against BSA control
T1 construct: range 25-145; A purification tag (Ni column) is implied but not described; also called TOM20胞质结构域
T1 sequence (looked up): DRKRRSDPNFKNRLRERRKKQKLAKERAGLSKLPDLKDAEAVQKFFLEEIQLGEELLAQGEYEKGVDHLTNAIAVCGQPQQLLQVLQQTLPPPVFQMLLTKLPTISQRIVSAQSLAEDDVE

[2] = target: T1, TOM20-Human 胞质结构域蛋白(25-145); assay: SPR (Biacore), antigen immobilised on chip, nanobody as analyte
TOM20-Mouse 胞质结构域 = target: T2, TOM20-Mouse 胞质结构域 (mouse, UniProt Q9DCC8 25-145); assay: as above
T2 construct: domain: 胞质结构域; also called TOM20(鼠)胞质结构域
T2 sequence (looked up): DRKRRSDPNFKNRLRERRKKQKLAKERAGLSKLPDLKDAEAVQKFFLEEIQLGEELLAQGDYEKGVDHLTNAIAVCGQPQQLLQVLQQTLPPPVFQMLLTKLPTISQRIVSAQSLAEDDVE

TOM20/BSA ratio [1]: ~3 fold
Kd [2]: 44.8 nM
Kd (TOM20-Mouse 胞质结构域): 413 nM
B1: P2B7号纳米抗体 (VHH)
VHH: AVQLVESGGGLVQAGGSLRLSCVASGSTFSNFVMGWYRQAPGKQRVLVATISSGGSTNYADSVKGRFTISRDNTKNTVYLQMNSLKPEDTSVYYCNARRGSVIVPTLAYDYWGQGTQVTVSS
notes: Alpaca naive-library nanobody expressed in E. coli with an HA tag for detection and purified on Ni resin; also called P2B7纳米抗体; TOM20纳米抗体; not shown: fused HA tag and vector-derived His tag (PET-14B or PET28a-sumo)
